PMC5039092 (FEBS letters, 2016)
Numbering of substitutions follows the chain as printed. Names and notes keep the numbering of the source.

B1: C394S mutant of full length human adenosine A2a receptor with a C-terminal 10 histidine tag (receptor, UniProt P29274 1-412, looked up)
chain: MPIMGSSVYITVELAIAVLAILGNVLVCWAVWLNSNLQNVTNYFVVSLAAADIAVGVLAIPFAITISTGFCAACHGCLFIACFVLVLTQSSIFSLLAIAIDRYIAIRIPLRYNGLVTGTRAKGIIAICWVLSFAIGLTPMLGWNNCGQPKEGKNHSQGCGEGQVACLFEDVVPMNYMVYFNFFACVLVPLLLMLGVYLRIFLAARRQLKQMESQPLPGERARSTLQKEVHAAKSLAIIVGLFALCWLPLHIINCFTFFCPDCSHAPLWLMYLAIVLSHTNSVVNPFIYAYRIREFRQTFRKIIRSHVLRQQEPFKAAGTSARVLAAHGSDGEQVSLRLNGHPPGVWANGSAPHPERRPNGYALGLVSGGSAQESQGNTGLPDVELLSHELKGVSPEPPGLDDPLAQDGAGVS
B2: spin labeled wild type full length human adenosine A2a receptor with a C-terminal 10 histidine tag (receptor, UniProt P29274 1-412, looked up)
chain: B1 chain with S394C
modifications: nitroxide radical MTSL spin label attached to free cysteines (thiol of C394)

What was measured:
[1] = molecular target: the molecule itself; test: SDS-PAGE and Western blot
SEC = molecular target: the molecule itself; test: SEC

Row | Protein | binding result [1] | binding result (SEC)
1 | B1 | binds | –
2 | B2 | – | binds
